In patent publication US20220057415A1, “METHOD FOR DETECTING ALLERGIC DISEASES” (The University of Tokyo, priority 2018, published 2022):

Key:
[1] = test system: ovalbumin-specific IgE in serum; test: Ovalbumin-specific IgE level in serum (ELISA); type: in vivo, BALB/C mice; details: OVA-sensitized mice (two i.p. sensitizations, not stimulated with OVA); not detected in unsensitized group; mean±SD
Method: (§1) To 23 BALB/C mice (female, 5 weeks old) (CLEA Japan, Inc., the same applies hereinafter), 50 μg of ovalbumin (manufactured by Sigma, sometimes abbreviated as “OVA” herein) dissolved and diluted with physiological saline (manufactured by Otsuka Pharmaceutical Co., Ltd.) and 1 mg of aluminum potassium sulfate (manufactured by Sigma-Aldrich Co. LLC.) were intraperitoneally administered simultaneously, and, after two weeks, 50 μg of OVA was intraperitoneally administered again for sensitization. Two weeks after the second sensitization, OVA (400 μg/10 μL) was transnasally administered once daily for 5 days (5 times, in total) or 10 days (10 times, in total) for stimulation, thereby preparing allergic rhinitis (sometimes abbreviated as “AR” herein) model mice. […]
Antigen sensitization is known to increase the antigen-specific IgE value in serum. To confirm the ovalbumin sensitization of the allergic rhinitis model mice prepared in Example 1 (1), the ovalbumin-specific IgE level in serum was measured. […] The freeze-preserved serum was diluted 25 times, and then the IgE level was measured using Anti-Ovalbumin IgE (mouse) ELISA Kit (manufactured by Cayman Chemical Company) according to the instructions attached to the kit.

BALB/C mice [2] = test: Evaluation of sneezing symptom; type: in vivo
Method: as §1
For the AR model mice (22 mice) and solvent-administered group (10 mice) prepared in Example 1, the numbers of sneezes for a period of 10 minutes from 1 minute to 11 minutes after each of the first to tenth administrations of OVA or the solvent were counted. For the upper respiratory inflammation model mice (9 mice) and single-time solvent-administered group (6 mice) prepared in Example 1, the numbers of sneezes were counted hourly after the administration of LPS or the solvent (until 10 hours later).

BALB/C mice [3] = test: Measurement of nasal cavity volume by computed tomography; type: in vivo
Method: To 23 BALB/C mice (female, 5 weeks old) (CLEA Japan, Inc., the same applies hereinafter), 50 μg of ovalbumin (manufactured by Sigma, sometimes abbreviated as “OVA” herein) dissolved and diluted with physiological saline (manufactured by Otsuka Pharmaceutical Co., Ltd.) and 1 mg of aluminum potassium sulfate (manufactured by Sigma-Aldrich Co. LLC.) were intraperitoneally administered simultaneously, and, after two weeks, 50 μg of OVA was intraperitoneally administered again for sensitization. […]
The nasal cavity volume of the AR model mice prepared in Example 1 was measured by computed tomography before the administration of OVA (6 mice), 24 hours after the fifth administration of OVA (6 mice), and 24 hours after the tenth administration of OVA (6 mice). As a control, the nasal cavity volume of the solvent-administered group prepared in Example 1 was measured in the same manner as above before the administration of the solvent (6 mice), 24 hours after the fifth administration of the solvent (6 mice), and 24 hours after the tenth administration of the solvent (6 mice). […] From the captured image, regions having a CT value of −900 to −300 HU (Hounsfield unit) were decided as the nasal cavities, and their volume was measured.

BALB/C mice [4] = test: Histopathological count of immunocytes infiltrated into nasal turbinates; type: in vivo
Method: Specifically, the maxilla was excised from the mice and immediately immersed in 4% paraformaldehyde at 4° C. for 5 days. Then, it was immersed in EDTA every day and decalcified at 4° C. for 10 days. Next, the bone covering the orbit was excised with a razor, dehydrated and cleared, and then embedded in paraffin to prepare continuous section specimens having a width of 4 μm. Hematoxylin-eosin staining (HE staining), chloroacetate-esterase staining (CAE staining), toluidine blue staining (TB staining) or May-Grünwald Giemsa staining (MG staining) was performed according to a conventional method for encapsulation. Specific staining procedures are as will be described below. The stained nasal cavity tissue was observed under an optical microscope (ACT-10, manufactured by Nikon Corporation), and imaged using a digital microscope camera (OPTIPHOT-2, manufactured by Nikon Corporation). The number of immunocytes (connective tissue type mast cells, mucosal type mast cells, eosinophils and neutrophils) in the nasal turbinates (sites where inflammatory cells infiltrate when rhinitis occurs and where many capillaries gather) was counted within 16 to 24 randomly selected areas (magnification: ×400) per section. CAE staining is a staining method in which mast cell-specific esterase is stained red using naphthol AS-D chloroacetate as a substrate. The continuous section specimens prepared in the above item (1) were deparaffinized and used for staining. A 4% sodium nitrite solution and a new fuchsin solution were mixed at a ratio of 1:1, and then this solution and a naphthol solution were mixed at a ratio of 1:9. This solution and phosphate buffer (0.2M NaH2PO4, 0.2M Na2HPO4, pH 7.6) were mixed at a ratio of 1:20, and the sections were immersed for 10 minutes. The sections were washed with distilled water and then counterstained with a hematoxylin solution. The total number of the mast cells (connective tissue type mast cells and mucosal type mast cells) present in the connective tissue and mucosal tissue within 1 mm^2 was counted to calculate the mean value and standard deviation. TB staining stains acidic mucous polysaccharides. Acidic mucous polysaccharides are present in the connective tissue type mast cells and absent in the mucosal type mast cells. The continuous section specimens prepared in the above item (1) were deparaffinized and then immersed in a 0.05% toluidine blue solution (pH: 4.1) for 10 minutes. Then, they were decolorized with a 90% alcohol solution and then encapsulated. CAE staining stains both the connective tissue type mast cells and the mucosal type mast cells, whereas TB staining stains only the connective tissue type mast cells. CAE staining and TB staining were performed on different sections, and cells positive for CAE staining and positive for TB staining were decided as connective tissue type mast cells. Also, cells positive for CAE staining and negative for TB staining were decided as mucosal type mast cells. The total number of the connective tissue mast cells or mucosal type mast cells present in the connective tissue and mucosal tissue within 1 mm^2 was counted to calculate the mean value and standard deviation. May-Grünwald Giemsa staining stains eosinophil-specific eosinophilic granules red. The continuous section specimens prepared in the above item (1) were deparaffinized and then immersed in a May-Grünwald staining solution for 6 minutes. Then, the sections were washed with 1/15 M-phosphate buffer (×10) (0.2M NaH2PO4, 0.2M Na2HPO4, pH 6.4 to 6.8). Thereafter, the sections were immersed for 3 minutes in a solution obtained by mixing a Giemsa staining solution and distilled water at a ratio of 1:20. HE staining and MG staining were performed on different sections, and cells confirmed to have a multilobed nucleus by HE staining and positive for MG staining were decided as eosinophils. Also, cells have a multilobed nucleus by HE staining and negative for MG staining were decided as neutrophils. […]

[5] = 10-time OVA-administered group vs 10-time solvent-administered group

B1: OVA: ovalbumin (manufactured by Sigma), antigen used for sensitization and stimulation of the allergy models (protein, UniProt P01012 2-386, looked up)
Ovalbumin: GSIGAASMEFCFDVFKELKVHHANENIFYCPIAIMSALAMVYLGAKDSTRTQINKVVRFDKLPGFGDSIEAQCGTSVNVHSSLRDILNQITKPNDVYSFSLASRLYAEERYPILPEYLQCVKELYRGGLEPINFQTAADQARELINSWVESQTNGIIRNVLQPSSVDSQTAMVLVNAIVFKGLWEKAFKDEDTQAMPFRVTEQESKPVQMMYQIGLFRVASMASEKMKILELPFASGTMSMLVLLPDEVSGLEQLESIINFEKLTEWTSSNVMEERKIKVYLPRMKMEEKYNLTSVLMAMGITDVFSSSANLSGISSAESLKISQAVHAAHAEINEAGREVVGSAEAGVDAASVSEEFRADHPFLFCIKHIATNAVLFFGRCVSP
B1 was tested, and the “serum ovalbumin-specific IgE” value [1] was 23 ± 6.29 ng/mL, the frequency of sneezing (BALB/C mice [2]; allergic rhinitis model mice, from the first transnasal administration of OVA) was “observed to increase” and the “number of sneezes for 10 minutes after administration” value (BALB/C mice [2]; fifth administration of OVA, compared with solvent-administered group, maintained until tenth administration) was “significantly increased”. For the same molecule, the nasal cavity volume (BALB/C mice [3]; 5-time OVA-administered group, 24 hours after fifth administration) was “decreased”, the nasal cavity volume (BALB/C mice [3]; 10-time OVA-administered group, compared with before the administration of OVA) was “significantly decreased” and the “number of eosinophils infiltrated into the nasal turbinates” value (BALB/C mice [4]; 5-time OVA-administered group vs 10-time solvent-administered group) was “significant increase”. For the same molecule, the “number of infiltrated eosinophils” value (BALB/C mice [4]; 5-time OVA-administered group vs LPS-administered group) was “significantly increased”, the “number of mucosal type mast cells infiltrated into the nasal turbinates” value (BALB/C mice [4]; 5-time OVA-administered group, solvent-administered groups and LPS-administered group compared) was “no significant difference” and the “number of infiltrated eosinophils” value (BALB/C mice [4]; 10-time OVA-administered group vs 5-time OVA-administered group) was “significantly increased”. For the same molecule, the “number of eosinophils infiltrated into the nasal turbinates” value (BALB/C mice [4]; [5]) was “significant increase”, the “number of mucosal type mast cells infiltrated into the nasal turbinates” value (BALB/C mice [4]; [5]) was “significant increase” and the “number of neutrophils infiltrated into the nasal turbinate” value (BALB/C mice [4]; OVA-administered groups (5 and 10 times) and solvent-administered groups) was “no significant difference”. The “number of connective tissue type mast cells infiltrated into the nasal turbinates” value (BALB/C mice [4]; OVA-administered groups (5 and 10 times), solvent-administered groups and LPS-administered group compared) was “no significant difference”.
